Molecular target: T1, Cullin 1 (human (endogenous in Mutu I and 293T), UniProt Q13616 1-776)
T1 construct: Cullin 1, human, endogenous protein of Mutu I and 293T cells; Neddylated and deneddylated forms are seen on blots; also called Cul1; Cul 1; source: endogenous, Mutu I lysate; endogenous, 293T lysate
Assay: co-IP; Mutu I total cell lysates (cells treated with DMSO or C60 for 48 hrs); IP with antibody to Cullin 1, CAND1 or IgG on protein A beads in SDS-free lysis buffer (50 mM Tris-HCl pH 7.6, 120 mM NaCl, 0.1% NP40, 1 mM EDTA), overnight 4°C; Western blot for Cullin 1 or CAND1
Details: partners not purified

T1 sequence (Q13616 whole entry): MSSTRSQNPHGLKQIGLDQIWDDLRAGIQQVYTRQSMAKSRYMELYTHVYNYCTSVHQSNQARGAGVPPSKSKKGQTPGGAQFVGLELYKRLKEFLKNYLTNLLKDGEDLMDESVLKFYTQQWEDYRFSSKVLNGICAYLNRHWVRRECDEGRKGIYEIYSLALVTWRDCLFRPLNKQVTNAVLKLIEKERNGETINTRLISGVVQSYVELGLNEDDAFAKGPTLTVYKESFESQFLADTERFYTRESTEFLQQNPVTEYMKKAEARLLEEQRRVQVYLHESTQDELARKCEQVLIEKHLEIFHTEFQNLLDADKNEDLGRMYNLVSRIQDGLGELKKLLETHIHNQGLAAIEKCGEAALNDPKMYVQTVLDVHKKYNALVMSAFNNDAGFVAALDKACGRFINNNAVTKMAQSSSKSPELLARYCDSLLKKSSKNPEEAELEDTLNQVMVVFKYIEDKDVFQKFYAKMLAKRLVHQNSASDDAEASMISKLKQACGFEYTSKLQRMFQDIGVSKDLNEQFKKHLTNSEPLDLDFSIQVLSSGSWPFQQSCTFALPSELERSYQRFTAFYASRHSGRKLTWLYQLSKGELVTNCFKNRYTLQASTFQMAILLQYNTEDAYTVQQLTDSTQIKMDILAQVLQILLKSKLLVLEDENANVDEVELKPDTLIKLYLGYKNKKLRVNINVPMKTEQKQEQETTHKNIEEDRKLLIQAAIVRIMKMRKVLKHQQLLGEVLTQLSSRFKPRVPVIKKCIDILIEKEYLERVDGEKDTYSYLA

B1: Cullin-associated and neddylation-dissociated 1 (CAND1) (natural protein, human (endogenous in Mutu I and 293T), UniProt Q86VP6 1-1230, looked up)
chain: MASASYHISNLLEKMTSSDKDFRFMATNDLMTELQKDSIKLDDDSERKVVKMILKLLEDKNGEVQNLAVKCLGPLVSKVKEYQVETIVDTLCTNMLSDKEQLRDISSIGLKTVIGELPPASSGSALAANVCKKITGRLTSAIAKQEDVSVQLEALDIMADMLSRQGGLLVNFHPSILTCLLPQLTSPRLAVRKRTIIALGHLVMSCGNIVFVDLIEHLLSELSKNDSMSTTRTYIQCIAAISRQAGHRIGEYLEKIIPLVVKFCNVDDDELREYCIQAFESFVRRCPKEVYPHVSTIINICLKYLTYDPNYNYDDEDEDENAMDADGGDDDDQGSDDEYSDDDDMSWKVRRAAAKCLDAVVSTRHEMLPEFYKTVSPALISRFKEREENVKADVFHAYLSLLKQTRPVQSWLCDPDAMEQGETPLTMLQSQVPNIVKALHKQMKEKSVKTRQCCFNMLTELVNVLPGALTQHIPVLVPGIIFSLNDKSSSSNLKIDALSCLYVILCNHSPQVFHPHVQALVPPVVACVGDPFYKITSEALLVTQQLVKVIRPLDQPSSFDATPYIKDLFTCTIKRLKAADIDQEVKERAISCMGQIICNLGDNLGSDLPNTLQIFLERLKNEITRLTTVKALTLIAGSPLKIDLRPVLGEGVPILASFLRKNQRALKLGTLSALDILIKNYSDSLTAAMIDAVLDELPPLISESDMHVSQMAISFLTTLAKVYPSSLSKISGSILNELIGLVRSPLLQGGALSAMLDFFQALVVTGTNNLGYMDLLRMLTGPVYSQSTALTHKQSYYSIAKCVAALTRACPKEGPAVVGQFIQDVKNSRSTDSIRLLALLSLGEVGHHIDLSGQLELKSVILEAFSSPSEEVKSAASYALGSISVGNLPEYLPFVLQEITSQPKRQYLLLHSLKEIISSASVVGLKPYVENIWALLLKHCECAEEGTRNVVAECLGKLTLIDPETLLPRLKGYLISGSSYARSSVVTAVKFTISDHPQPIDPLLKNCIGDFLKTLEDPDLNVRRVALVTFNSAAHNKPSLIRDLLDTVLPHLYNETKVRKELIREVEMGPFKHTVDDGLDIRKAAFECMYTLLDSCLDRLDIFEFLNHVEDGLKDHYDIKMLTFLMLVRLSTLCPSAVLQRLDRLVEPLRATCTTKVKANSVKQEFEKQDELKRSAMRAVAALLTIPEAEKSPLMSEFQSQISSNPELAAIFESIQKDSSSTNLESMDTS
notes: CAND1, human, endogenous protein of Mutu I and 293T cells; also called TIP120A; source: endogenous, Mutu I lysate; endogenous, 293T lysate
**Q.** With B1 as the binder, how does the “fold decrease of the association in C60-treated against DMSO-treated cells” value read?
**A.** ~5 fold

Source: article PMC5531659, “Small molecule perturbation of the CAND1-Cullin1-ubiquitin cycle stabilizes p53 and triggers Epstein-Barr virus reactivation” (PLoS Pathogens, 2017)
